Our source for the Kd and binding signal values is PMC11551757, “Phylogenomic instructed target analysis reveals ELAV complex binding to multiple optimally spaced U-rich motifs”.

The target of data set [1] is T1, ELAV (rELAV) (Drosophila melanogaster?) (UniProt P16914).
T1 sequence: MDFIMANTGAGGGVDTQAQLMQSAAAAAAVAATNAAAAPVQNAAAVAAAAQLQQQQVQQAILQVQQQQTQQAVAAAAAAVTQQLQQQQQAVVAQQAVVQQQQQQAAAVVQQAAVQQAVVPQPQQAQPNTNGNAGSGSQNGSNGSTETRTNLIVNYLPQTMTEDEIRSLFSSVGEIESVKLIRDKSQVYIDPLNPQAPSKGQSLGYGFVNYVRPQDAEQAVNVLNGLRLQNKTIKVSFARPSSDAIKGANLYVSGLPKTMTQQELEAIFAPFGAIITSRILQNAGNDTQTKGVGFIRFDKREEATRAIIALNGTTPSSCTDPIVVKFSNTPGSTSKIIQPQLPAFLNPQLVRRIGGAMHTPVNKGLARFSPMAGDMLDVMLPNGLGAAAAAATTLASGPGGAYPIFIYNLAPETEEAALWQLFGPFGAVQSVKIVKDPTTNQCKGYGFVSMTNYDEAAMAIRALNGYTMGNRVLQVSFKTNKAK
The data set can be described thus: EMSA. Conditions: EMSA: 50 mM Tris-HCl pH 7.5, 60 mM NaCl, 25 ug/ml tRNA, 0.5 mM DTT, 50 ug/ml acetylated BSA, 20 min; 4-6% native gel in 0.5x TBE at 4 C. Footprinting: …. In general terms: Mobility shift assays separate free from complexed probe on a gel.

Data set [2] has as its target T2, ELAV (rELAV) (UniProt P16914 1-483).
T2 sequence: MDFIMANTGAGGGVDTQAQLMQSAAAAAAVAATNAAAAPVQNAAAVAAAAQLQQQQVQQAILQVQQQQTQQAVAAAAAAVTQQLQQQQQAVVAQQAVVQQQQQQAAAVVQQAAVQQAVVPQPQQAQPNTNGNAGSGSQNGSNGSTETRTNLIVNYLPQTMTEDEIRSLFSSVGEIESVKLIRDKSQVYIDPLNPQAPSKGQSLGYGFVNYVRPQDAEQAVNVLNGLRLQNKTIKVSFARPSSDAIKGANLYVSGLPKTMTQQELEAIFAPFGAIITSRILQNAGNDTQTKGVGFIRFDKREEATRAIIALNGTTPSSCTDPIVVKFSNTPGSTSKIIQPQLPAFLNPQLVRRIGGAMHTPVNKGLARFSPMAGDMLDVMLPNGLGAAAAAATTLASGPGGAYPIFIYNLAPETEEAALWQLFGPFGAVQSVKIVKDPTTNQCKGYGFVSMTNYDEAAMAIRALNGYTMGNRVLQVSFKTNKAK
Put plainly: EMSA; EMSA: 50 mM Tris-HCl pH 7.5, 60 mM NaCl, 25 ug/ml tRNA, 0.5 mM DTT, 50 ug/ml acetylated BSA, 20 min; 4-6% native gel in 0.5x TBE at 4 C. Footprinting: complexes formed as for EMSA, 15 min at room temperature. Conditions: protein: recombinant; tags: GST tag, cleaved off with PreScission protease.

In the data set with ELAV (rELAV) [1], Teh2 RNA registered a dissociation constant Kd of 430 nM.

Regarding 5PtaseI RNA, the Kd in the data set with ELAV (rELAV) [1] worked out at 24 nM.

Ect4 RNA displayed a dissociation constant (Kd) with ELAV (rELAV) [1] of 100 nM.

For the molecule CG4662 RNA, the Kd with ELAV (rELAV) [1] is 80 nM.

Regarding GAAGCUAUUAUACAUUUUAUCUUAUAACUCUAUACUUUAUGUU (ssRNA) [M7H A(CU)2 in m3r], in the data set with ELAV (rELAV) [2], the binding signal is 2.5 fold lower affinity than M7H.

A word on the Kd: it is the equilibrium constant for the complex coming apart.
